The source of these data is US20140140975A1.

For data set [1], the target named is Fas death receptor (mouse) (UniProt P25446). The experiment in a line: cell-based or functional assay.
Another data set deals with recombinant human GRX1 (UniProt P35754).
UniProt P35754, sequence (P35754 whole entry): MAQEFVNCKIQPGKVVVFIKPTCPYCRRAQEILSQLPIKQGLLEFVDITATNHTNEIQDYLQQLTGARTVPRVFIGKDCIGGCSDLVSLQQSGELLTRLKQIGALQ

UniProt P25446, sequence (P25446 22-327): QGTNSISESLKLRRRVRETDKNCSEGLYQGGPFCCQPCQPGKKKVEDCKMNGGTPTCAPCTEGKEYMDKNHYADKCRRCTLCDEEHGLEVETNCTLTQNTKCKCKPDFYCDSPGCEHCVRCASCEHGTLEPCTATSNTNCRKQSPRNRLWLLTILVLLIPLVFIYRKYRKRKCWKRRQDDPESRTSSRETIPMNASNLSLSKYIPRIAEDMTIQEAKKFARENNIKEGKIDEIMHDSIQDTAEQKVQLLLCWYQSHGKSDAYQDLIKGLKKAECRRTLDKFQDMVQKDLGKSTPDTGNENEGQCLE

Fas Ligand: the catalytic activity of GRX1 in lung epithelial cells in data set [1] is 50 % decrease.
On to recombinant Caspase 3, for which the “cleavage of GRX1 (Western Blotting)” value in the data set with recombinant human GRX1 is given as “Treatment of recombinant human GRX1 with recombinant Caspase 8 or 3 results in cleavage of GRX1”.
On the same count and under the same terms, with recombinant Caspase 8 the entry was “Treatment of recombinant human GRX1 with recombinant Caspase 8 or 3 results in cleavage of GRX1”.
